Results taken from patent US20240189408A1, “COMPOSITIONS AND METHODS FOR REDUCING METHANE EMISSIONS IN RUMINANT POPULATIONS” (Arkea Bio Corp., priority 2022, published 2024).

Experiments:
[1] = LNP size and polydispersity by DLS (Malvern Panalytical); type: physicochemical; conditions: mRNA LNPs of Table 18; for PDI: LNP polydispersity; for Z-avg.: LNP size
Description: (§1) To prepare lipid nanoparticles (LNPs), the mRNA stocks were thawed on ice. Nucleic acid concentrations were validated by absorbance at 260 nm using a NanoDrop. The mRNAs were then diluted to a final concentration of 0.35 mg/mL mRNA in Precision Nanosystem's dilution buffer. 10 mL of the dilute mRNAs were loaded into separate Luer lock syringes and all bubbles were removed by gentle tapping. A NanoAssemblr Ignite NxGen Cartridge was loaded into the cartridge slot of the Ignite instrument (FIG. 8A, 801) and one mRNA syringe was attached to the aqueous inlet of the cartridge. 3.3 mL of Genvoy-ILM reagent was loaded into a separate Luer lock syringes and all bubbles were removed by gentle tapping. The Genvoy-ILM syringe was then attached to the organic inlet of the cartridge. LNPs were then generated and collected into a 15 mL conical tube. The process was repeated for the remaining two mRNAs and for a buffer only LNP control (empty). Immediately after LNPs were generated, the samples were loaded into 10K dialysis cartridges, submerged into 1×DPBS (Ca^2+ and Mg^2+-free) to reduce the ethanol concentration to <0.5%. After dialysis the LNPs were recovered from the dialysis cartridges and sterile filtered at 0.2 um. Size and polydispersity (FIG. 8A, 802) were measured using a Malvern Panalytical DLS by diluting 40 uL of LNPs into 360 uL of 1×DPBS. […] Encapsulation efficiency was measured using a RiboGreen assay following Precision Nanosystems recommended protocol using a BioTek Synergy H1 Plate Reader. The resultant encapsulation efficiencies are shown in Table 14, with an average of ˜85%.
(§2) To prepare lipid nanoparticles (LNPs), the mRNA stocks were thawed on ice. Nucleic acid concentrations were validated by absorbance at 260 nm using a NanoDrop. The mRNAs were then diluted to a final concentration of 0.35 mg/mL mRNA in Precision Nanosystem's dilution buffer. 10 mL of the dilute mRNAs were loaded into separate Luer lock syringes and all bubbles were removed by gentle tapping. A NanoAssemblr Ignite NxGen Cartridge was loaded into the cartridge slot of the Ignite instrument and one mRNA syringe was attached to the aqueous inlet of the cartridge. 3.3 mL of Genvoy-ILM reagent was loaded into a separate Luer lock syringes and all bubbles were removed by gentle tapping. The Genvoy-LM syringe was then attached to the organic inlet of the cartridge. LNPs were then generated and collected into a 15 mL conical tube. The process was repeated for the remaining mRNAs and for a buffer only LNP control (empty). Immediately after LNPs were generated, the samples were loaded into 10K dialysis cartridges, submerged into Ix DPBS (Ca^2+ and Mg^2+-free) to reduce the ethanol concentration to <0.5%. After dialysis the LNPs were recovered from the dialysis cartridges and sterile filtered at 0.2 um. Size and polydispersity (FIG. 12 and FIG. 13) were measured using a Malvern Panalytical DLS by diluting 40 uL of LNPs into 360 uL of 1×DPBS. […] Encapsulation efficiency was measured using a RiboGreen assay following Precision Nanosystems recommended protocol using a BioTek Synergy H1 Plate Reader. The resultant encapsulation efficiencies are shown in Table 18, with an average of ˜60%.
(§3) To prepare lipid nanoparticles (LNPs), the mRNA stocks are thawed on ice. Nucleic acid concentrations are validated by absorbance at 260 nm using a NanoDrop. The mRNAs are then diluted to a final concentration of 0.35 mg/mL mRNA in Precision Nanosystem's dilution buffer. 10 mL of the dilute mRNAs are loaded into separate Luer lock syringes and all bubbles are removed by gentle tapping. A NanoAssemblr Ignite NxGen Cartridge is loaded into the cartridge slot of the Ignite instrument and one mRNA syringe is attached to the aqueous inlet of the cartridge. 3.3 mL of Genvoy-ILM reagent is loaded into a separate Luer lock syringes and all bubbles are removed by gentle tapping. The Genvoy-ILM syringe is then attached to the organic inlet of the cartridge. […]

[2] = LNP encapsulation efficiency, RiboGreen assay; type: physicochemical; conditions: mRNA LNPs of Table 18
Description: as §1, §2, §3

| Molecule | PDI [1] | Z-avg. [1] | Encapsulation efficiency [2] |
| --- | --- | --- | --- |
| ARK005: mRNA: SP + WP_011033493.1 (Methanosarcina mazei) + TM/C; SEQ ID NO: 16680 (nucleic acid, listed as DNA) ATGTTCGTGTTCCTCGTGCTCCTGCCCCTCGTCTCCAGCCAGTGCGTGTACCTCATGACGGTGGTGCTCGGACACCCATTCCCGCTGACACCCTGGTACATCTGGCTGGGCTTCATCGCAGGACTGATCGCCATCGTCATGGTCACCATAATGCTCTGTTGCATGACCTCCTGCTGTAGCTGCCTGAAAGGCTGTTGCAGCTGCGGGAGCTGCTGCAAATTCGACGAAGACGATAGCGAACCTGTGCTCAAAGGGGTGAAGTTGCATTACACATAGTGA | 0.064 | 78.82 nm·days | 56% |
| ARK003: mRNA: SP + WP_019264904.1 (Methanobrevibacter smithii) + TM/C; SEQ ID NO: 16678 (nucleic acid, listed as DNA) ATGTTCGTGTTCCTCGTGCTCCTGCCCCTCGTCTCCAGCCAGTGCGTGTACCTCATGACCATACCACTGAACGGCACCCCACTCCACGCCTTCCCACTGCCACCCTGGTACATCTGGCTGGGCTTCATCGCAGGACTGATCGCCATCGTCATGGTCACCATAATGCTCTGTTGCATGACCTCCTGCTGTAGCTGCCTGAAAGGCTGTTGCAGCTGCGGGAGCTGCTGCAAATTCGACGAAGACGATAGCGAACCTGTGCTCAAAGGGGTGAAGTTGCATTACACATAGTGA | 0.118 | 78.82 nm·days | 40% |
| ARK004: mRNA: SP + WP_016359091.1 (Methanobrevibacter sp. AbM4) + TM/C; SEQ ID NO: 16679 (nucleic acid, listed as DNA) ATGTTCGTGTTCCTCGTGCTCCTGCCCCTCGTCTCCAGCCAGTGCGTGTACCTGATGATAATCCCAATCAACGGGAGTGCACTCCACATCTTCCCCCTCCCGCCCTGGTACATCTGGCTGGGCTTCATCGCAGGACTGATCGCCATCGTCATGGTCACCATAATGCTCTGTTGCATGACCTCCTGCTGTAGCTGCCTGAAAGGCTGTTGCAGCTGCGGGAGCTGCTGCAAATTCGACGAAGACGATAGCGAACCTGTGCTCAAAGGGGTGAAGTTGCATTACACATAGTGA | 0.108 | 78.82 nm·days | 51% |
